As a reminder, the Kd is the free concentration of one partner at which half of the binding sites on the other are occupied at equilibrium, for simple one-to-one binding. A low value points to tighter binding.

The target in the assay is sDMA-containing peptide (Bio-…[sDMA]G[sDMA]G[sDMA]G[sDMA]KPN). As to the kind of experiment: SPR. (In general: Surface plasmon resonance follows binding to a sensor surface in real time, without labels.)

Consider “His-tagged N-terminal deleted BmPAPI (ΔN-BmPAPI: amino acids 48–629) (domain or fragment)”, for which the equilibrium dissociation constant (Kd) amounted to 27 µM.

For the origin of these results see paper PMC3854531.
